Patent publication US20030211537A1 (ARCH DEVELOPMENT, published 2003)
Starred links: 1 amine or outer side, 2 acyl side, 3 side chain; linkers in the order of their positions; H or OH if unused. Non-standard residues stand in square brackets, D forms with d. No end group written: not given here. Tyr(125I) = 125I-labelled Tyr, O=C([C@H](Cc1ccc(O[*:3])c([125I])c1)N[*:1])[*:2]

T1: κ1-78/δ70-372 chimeric opioid receptor (mouse)
T1 construct: Expressed in COS-7 cells, membranes assayed
T1 chain: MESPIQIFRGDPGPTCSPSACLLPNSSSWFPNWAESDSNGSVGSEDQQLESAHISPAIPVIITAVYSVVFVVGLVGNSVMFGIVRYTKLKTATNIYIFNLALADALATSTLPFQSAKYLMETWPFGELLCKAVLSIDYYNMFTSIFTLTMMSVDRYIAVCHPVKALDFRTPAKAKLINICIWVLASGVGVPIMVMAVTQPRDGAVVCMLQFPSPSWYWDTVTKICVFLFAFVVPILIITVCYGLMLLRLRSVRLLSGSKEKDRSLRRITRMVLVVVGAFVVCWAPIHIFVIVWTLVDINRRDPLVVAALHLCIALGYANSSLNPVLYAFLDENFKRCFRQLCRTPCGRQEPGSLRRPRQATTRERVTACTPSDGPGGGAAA


Assays:
[1] = biological target: T1, κ1-78/δ70-372 chimeric opioid receptor; assay: competition vs [3H]naloxone, COS-7 membranes
Protocol: The homogenate is centrifuged at 48,000×g for 20 min at 4° C. and the pellet resuspended in Buffer 1 and used in the radioligand binding assay. […] All radioligands were obtained from NEN/Dupont (Boston, Mass.). […] The binding reaction is terminated by the addition of ice-cold 50 mM Tris-HCL (pH 7.8) and rapid filtration over Whatman GF/B glass fiber filters that were pretreated with 0.5% polyethleneimine and 0.1% bovine serum albumin. The filters were washed with 12 ml of ice-cold buffer and soaked overnight in scintillation fluid. The bound radioactivity was determined using a scintillation counter.

[2] = biological target: cloned human µ opioid receptor (human, UniProt P35372 1-400); assay: competition vs [3H]DAMGO, COS-7 membranes
Protocol: For radioligand binding assays, cells were harvested in 50 mM Tris-HCl (pH 7.8) containing 1 mM ethylene glycol bis(b-aminoethyl ether)-N,N′-tetraacetic acid, 5 mM MgCl₂, 10 mg/ml leupeptin, 10 mg/ml pepstatin, 200 mg/ml bacitracin and 0.5 mg/ml aprotinin (buffer 1) and centrifuged at 24,000×g for 7 min at 4° C. The pellet was homogenized in buffer 1 using a Polytron (Brinkmann, setting 2.5, 30 sec). The homogenate was then centrifuged at 48,000×g for 20 min at 4° C. The pellet was homogenized in buffer 1 and this membrane preparation was used for the radioligand binding studies. […] The binding reaction was terminated by the addition of ice-cold 50 mM Tris-HCl buffer (pH 7.8) and rapid filtration over Whatman GF/B glass fiber filters which were pretreated with 0.5% polyethyleneimine/0.1% BSA for at least 1 hour. The filters were then washed with 12 mL of ice-cold Tris-HCl buffer and the bound radioactivity counted in a scintillation counter. Data from radioligand binding 10 studies were used to generate inhibition curves.

[3] = biological target: T2, mouse kappa opioid receptor (mORK1) (mouse, UniProt P33534 1-380); assay: competition vs [3H]U-69,593, PC12 membranes
T2 construct: Assayed in membranes of transfected COS-1, PC12 or COS-7 cells; also called msl-1; κ receptor
Protocol: (§1) Receptor binding assays were performed using membranes from either PC12 cells stably expressing the cloned mouse K receptor, CHO-DG44 cells stably expressing the mouse 8 receptor, or COS-7 cells transiently expressing the rat μ receptor 48-72 hours after transfection as previously described (4,10). For radioligand binding assays, cells were harvested in 50 mM Tris-HCl (pH 7.8) containing 1 mM ethylene glycol bis(β-aminoethyl ether)-N,N′-tetraacctic acid, 5 mM MgCl₂, 10 μg/ml leupeptin, 10 μg/ml pepstatin 200 μg/ml bacitracin and 0.5 μg/ml aprotinin (buffer 1) and centrifuged at 24,000 K g for 7 min at 4° C. The pellet was homogenized in buffer 1 using a Polytron (Brinkmann, setting 2.5 30 sec). The Homogenate was then centrifuged at 48,000 κ g for 20 min at 4° C. The pellet was homogenized in buffer 1 and this membrane preparation was used for the radioligand binding studies. […] The binding reaction was terminated by the addition of ice-cold 50 mM Tris-HCl buffer (pH 7.8) and rapid filtration over Whatman GF/B glass fiber filters which were pretreated with 0.5% polyethyleneimine/0.1% BSA for at least 1 hour. The filters were then washed with 12 mL of ice-cold Tris-HCl buffer and the bound radioactivity counted in a scintillation counter. Data from radioligand binding studies were used to generate inhibition curves.

[4] = biological target: T3, rat µ opioid receptor (rat, UniProt P33535 1-398); assay: competition vs [3H]DAMGO, COS-7 membranes
T3 construct: whole, on cells; Assayed in membranes of transfected COS-7 cells; also called cloned µ receptor; rat µ receptor
Protocol: as §1

[5] = biological target: T4, mouse delta opioid receptor (mORD1) (mouse, UniProt P32300 1-372); assay: competition vs [3H]naltrindole, CHO-DG44 membranes
T4 construct: Assayed in membranes of transfected COS-1, CHO-DG44 or COS-7 cells; also called msl-2; δ receptor
Protocol: as §1

[6] = biological target: T4, mouse delta opioid receptor (mORD1); assay: radioligand binding, COS-1 membranes
[7] = biological target: T2, mouse kappa opioid receptor (mORK1); assay: radioligand binding, COS-1 membranes

Sequence of cloned human µ opioid receptor (P35372 whole entry): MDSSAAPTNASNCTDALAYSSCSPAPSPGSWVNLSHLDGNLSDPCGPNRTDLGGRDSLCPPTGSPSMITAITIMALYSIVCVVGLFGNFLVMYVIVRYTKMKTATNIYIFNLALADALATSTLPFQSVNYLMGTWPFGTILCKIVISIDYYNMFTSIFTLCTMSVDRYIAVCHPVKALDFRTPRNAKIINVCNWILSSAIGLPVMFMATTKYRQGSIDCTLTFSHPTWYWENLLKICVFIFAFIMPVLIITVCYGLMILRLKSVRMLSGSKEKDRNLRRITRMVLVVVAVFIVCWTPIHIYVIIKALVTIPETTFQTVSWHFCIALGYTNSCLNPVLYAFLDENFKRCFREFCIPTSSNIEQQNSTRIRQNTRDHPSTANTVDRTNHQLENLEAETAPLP
T3 sequence (P33535 whole entry): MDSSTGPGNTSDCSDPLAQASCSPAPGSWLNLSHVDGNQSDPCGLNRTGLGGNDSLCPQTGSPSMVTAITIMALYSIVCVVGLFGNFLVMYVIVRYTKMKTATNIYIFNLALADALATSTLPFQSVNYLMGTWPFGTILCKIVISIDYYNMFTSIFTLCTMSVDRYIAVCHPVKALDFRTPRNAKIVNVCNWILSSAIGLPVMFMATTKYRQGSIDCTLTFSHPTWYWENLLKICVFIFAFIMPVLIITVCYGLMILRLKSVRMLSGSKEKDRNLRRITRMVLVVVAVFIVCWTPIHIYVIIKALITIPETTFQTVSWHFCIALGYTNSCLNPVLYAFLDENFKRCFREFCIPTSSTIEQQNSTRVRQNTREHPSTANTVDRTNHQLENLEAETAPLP

Binder | Ki [2] | Ki [3] | Ki [4] | Ki [5] | further results
YGGFLRRIRPKLKWDNQ (peptide, UniProt P01213 207-223, looked up) [dynorphin (form not specified)] | – | – | – | – | IC50 [1]: 40 nM
GGFMTSEKSQTPLVTLFKNAIIKNAYKKGE (peptide, UniProt P01189 238-267, looked up, domain: des-Tyr1-β-endorphin; also called des-Tyrl-β-endorphin) [des-Tyr1-β-endorphin] | > 1000 nM | > 1000 nM | > 1000 nM | > 1000 nM | –
FCYWXTXT (D-Phe at 1, D-Trp at 4, Orn at 5 (printed Om), Pen at 7, C-terminal NH2; X in the letters stands for Orn 5 and Pen 7) [CTOP (D-Phe-Cys-Tyr-D-Trp-Orn-Thr-Pen-Thr-NH2)] | 3.9 nM | – | – | – | –
YGGFM (peptide, UniProt P01210 100-104, looked up, domain: Met-enkephalin) [Met-enkephalin] | – | > 1000 nM | – | – | –
YGGFMTSEKSQTPLVTLFKNAIIKNAYKKGE (peptide, UniProt P01189 237-267, looked up, also: 125I-labelled where used as radioligand, site not given here, domain: β-Endorphin; also called beta-endorphin) [β-Endorphin (human)] | – | – | 1 nM | 1 nM | –
AGCKNFFWKT[Tyr(125I)]TSC (peptide, UniProt P61278 103-116, looked up, ends and bridges not checked) [[125I-Tyr11] SRIF] | – | – | – | – | binding result [6]: no binding; binding result [7]: no binding
